Data on one substance can be found in paper PMC3469819.

For assay [1], the target named is truncated CDK9 construct CDK9_(330) (residues 1–330) (human) (UniProt P50750).
Assay [2] addresses full-length human CDK9 (residues 1–372) (human) (UniProt P50750).
The target is the same in assay [3]. This is another data set of the same source.

Sequence of full-length human CDK9 (residues 1–372) (human) (P50750 whole entry, the tested form may be a part): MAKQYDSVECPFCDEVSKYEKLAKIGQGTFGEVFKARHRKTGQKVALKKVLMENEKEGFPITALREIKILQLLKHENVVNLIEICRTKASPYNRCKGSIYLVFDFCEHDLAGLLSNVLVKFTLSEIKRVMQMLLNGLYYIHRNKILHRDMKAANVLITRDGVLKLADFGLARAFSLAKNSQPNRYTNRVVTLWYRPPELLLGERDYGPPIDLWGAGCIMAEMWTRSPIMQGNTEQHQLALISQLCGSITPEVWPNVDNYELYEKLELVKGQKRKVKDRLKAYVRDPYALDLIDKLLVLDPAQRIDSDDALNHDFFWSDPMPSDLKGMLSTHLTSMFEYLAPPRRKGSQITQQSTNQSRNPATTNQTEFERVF
Sequence of truncated CDK9 construct CDK9_(330) (residues 1–330) (human) (P50750 1-330): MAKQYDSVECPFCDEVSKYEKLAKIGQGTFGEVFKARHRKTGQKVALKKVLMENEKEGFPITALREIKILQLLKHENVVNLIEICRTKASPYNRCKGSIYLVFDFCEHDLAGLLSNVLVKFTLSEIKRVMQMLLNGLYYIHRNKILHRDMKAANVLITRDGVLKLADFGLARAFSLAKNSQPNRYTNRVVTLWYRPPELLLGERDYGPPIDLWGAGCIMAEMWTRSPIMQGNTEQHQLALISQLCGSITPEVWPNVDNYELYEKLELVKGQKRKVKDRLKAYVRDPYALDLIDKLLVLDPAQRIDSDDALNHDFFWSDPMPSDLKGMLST

In assay [1], “GST-tagged version of the human Pol II CTD (from UniProt P24928 1587-1970) (domain or fragment)” returned a K (M,app) for GST-CTD of the kinase activity of CDK9 (330)/cyclin T (32P incorporation into GST-CTD, fixed ATP) of 21.3 µM. In assay [2], this substance had a K (M,app) for GST-CTD of the kinase activity of CDK9FL/cyclin T (32P incorporation into GST-CTD, fixed ATP) of 24.3 µM. For the same substance, the K (M, CTD): overall Michaelis constant for GST-CTD of CDK9FL/cyclin T, from initial rates with both GST-CTD and ATP varied in assay [3] was found to be 115 µM.
